Experimental data published in publication PMC3265611.

Biological target: T1, Flag-yTdp1 H432N (Saccharomyces cerevisiae, UniProt P38319 1-544, H432N)
T1 sequence: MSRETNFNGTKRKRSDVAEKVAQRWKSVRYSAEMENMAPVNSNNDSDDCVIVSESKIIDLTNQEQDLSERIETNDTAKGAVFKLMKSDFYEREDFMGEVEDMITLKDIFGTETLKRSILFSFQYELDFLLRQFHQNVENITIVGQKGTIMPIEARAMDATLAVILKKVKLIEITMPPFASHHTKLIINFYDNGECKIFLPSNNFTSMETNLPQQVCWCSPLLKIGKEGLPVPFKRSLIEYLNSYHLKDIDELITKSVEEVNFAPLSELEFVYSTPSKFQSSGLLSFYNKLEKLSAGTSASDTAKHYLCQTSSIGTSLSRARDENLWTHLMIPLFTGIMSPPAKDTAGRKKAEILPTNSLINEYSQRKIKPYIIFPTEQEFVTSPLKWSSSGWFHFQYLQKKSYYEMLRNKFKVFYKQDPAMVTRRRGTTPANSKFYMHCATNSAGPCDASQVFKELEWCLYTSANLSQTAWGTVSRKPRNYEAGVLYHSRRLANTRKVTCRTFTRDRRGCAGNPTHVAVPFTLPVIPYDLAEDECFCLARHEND
Assay: EMSA

GATCTAAAAGACTT (ssDNA, 3' phosphotyrosine) [3'-pY 14-mer substrate]: no binding.
